Biological target: GH42 β-galactosidase Bbreβgal-III from Bifidobacterium breve DSM 20213 (Bifidobacterium breve DSM 20213)
Test: SEC-MALS; OMNISEC multidetector GPC/SEC (RI, UV/Vis, RALS 90° + LALS 7°); 22 μL injected at 13.4 mg/mL, 0.5 mL/min, 20 °C, DPBS without Ca2+ and Mg2+; dn/dc 0.185 mL/g; oligomeric state of the enzyme

For “GH42 β-galactosidase Bbreβgal-III from Bifidobacterium breve DSM 20213 (enzyme)”, the stoichiometry N was 3.

— article PMC12756740, “A GH42 β‑Galactosidase from the Human Isolate Bifidobacterium breve DSM 20213: Biochemical and Transgalactosylation Properties Reveal the Potential for Galacto-oligosaccharides Synthesis” (ACS Omega, 2025)
